The target of test [1] is 3TD of SETDB1, W358A mutant, as used in ITC and crystals (UniProt Q15047). The test is described as follows: ITC; 25 °C, VP-ITC, 20 mM Tris/HCl pH 7.0, 150 mM NaCl; protein 50 to 100 μM, ligand 1–2 mM; one-site binding model. In general terms: Isothermal titration calorimetry measures the heat released or taken up as one component is titrated into another.
Test [2] deals with H3K9me1/K14ac peptide in solution (ITC). The test is described as follows: ITC. Conditions: read off a plot.
In test [3] the target is H3K9me2/K14ac peptide in solution (ITC; crystal with W358A), limits not stated. The test can be described thus: ITC. Conditions: read off a plot.
The target in test [4] is H3K9me3/K14ac peptide in solution (ITC; crystals). The test is described as follows: ITC. Conditions: read off a plot.

In turn, “H3K9me2/K14ac peptide in solution (ITC; crystal with W358A), limits not stated” returned a fold reduction of affinity against wildtype 3TD in test [1] of 18 fold. Take “triple Tudor domain (3TD) of SETDB1, wildtype, as used in solution (ITC, NMR, crystals) (from UniProt Q15047) Y268A”: the ratio to parent in test [2] was 1.5; in test [3], 1.1; in test [4] it was 0.18. “H3K9me3/K14ac peptide in solution (ITC; crystals)” came in with a fold reduction of binding against wildtype 3TD in test [1] of 2 fold.

The values are drawn from publication PMC5727127, “H3K14ac is linked to methylation of H3K9 by the triple Tudor domain of SETDB1” (Nature Communications, 2017).
